Test results from PMC10998906.

Legend:
Experiment in all cases: negative-stain EM
[1] = biological target: H1/1 GCN4 (NL09 head, PR8 stalk, GCN4-trimerized) (influenza A virus A/Puerto Rico/8/34/Mount Sinai(H1N1) | influenza A virus A/Netherlands/602/2009(H1N1))
[2] = biological target: H5/1 GCN4 (IN05 head, PR8 stalk, GCN4-trimerized) (influenza A virus A/Puerto Rico/8/34/Mount Sinai(H1N1) | influenza A virus A/Indonesia/5/2005(H5N1))
[3] = biological target: H2/1 GCN4 (SG57 head, PR8 stalk, GCN4-trimerized) (influenza A virus A/Puerto Rico/8/34/Mount Sinai(H1N1) | influenza A virus A/Singapore/1/1957(H2N2))
[4] = biological target: H1 GCN4 (NL09 HA, GCN4-trimerized) (influenza A virus A/Netherlands/602/2009(H1N1))

H1/1 GCN4 (NL09 head, PR8 stalk, GCN4-trimerized) (domain or fragment)
stoichiometry N [1]: 3

CR9114 Fab
stoichiometry N (Fabs per trimer) [2]: 3
stoichiometry N (Fabs per trimer) [3]: 3
stoichiometry N (Fabs per trimer) [1]: 3
stoichiometry N (Fabs per trimer) [4]: 3
